{
  "source": "paper PMC7442782",
  "about": "“Molecular basis for DNA repair synthesis on short gaps by mycobacterial Primase-Polymerase C” (Nature Communications, 2020)",
  "molecules": {"B1": {"name": "2-AP 1-nt gap substrate (dsDNA)", "DNA 1": "AGTCGCATAGTGTAGTCATGTCGATTCGCCATAG", "DNA 2": "CTATGAGCGAATCGAC", "DNA 3": "CGACTACACTATGCGACT", "modifications": "2-aminopurine at position 15 of primer oKZ282 (written A); 5'-phosphate on downstream strand"}, "B2": {"name": "2-AP 2-nt gap substrate (dsDNA)", "DNA 1": "AGTCGCATAGTGTAGTCATGTCGATTCGCCATAG", "DNA 2": "CTATGAGCGAATCGAC", "DNA 3": "GACTACACTATGCGACT", "modifications": "2-aminopurine at position 15 of primer oKZ282 (written A); 5'-phosphate on downstream strand"}, "B3": {"name": "2-AP 3-nt gap substrate (dsDNA)", "DNA 1": "AGTCGCATAGTGTAGTCATGTCGATTCGCCATAG", "DNA 2": "CTATGAGCGAATCGAC", "DNA 3": "ACTACACTATGCGACT", "modifications": "2-aminopurine at position 15 of primer oKZ282 (written A); 5'-phosphate on downstream strand"}, "B4": {"name": "1-nt gapped post-catalytic DNA (mixed)", "DNA 1": "CGCTCGCAACGCACG", "DNA 2": "CGTGCGU", "?": "GCGAGCG", "modifications": "5'-phosphate on D strand; primer 3' terminus is 3'-deoxyuridine (ribo, incorporated in situ)"}, "B5": {"name": "2-nt gapped DNA T/P/D (dsDNA)", "DNA 1": "CGCTCGCAACGCACG", "DNA 2": "CGTGCG", "DNA 3": "GCGAGCG", "modifications": "5'-phosphate on D strand"}},
  "key": {"[1]": {"target": "T1, Prim–PolC (Msm Prim–PolC) (Mycolicibacterium smegmatis, UniProt A0R5T1)", "T1 construct": "gene ligD; residues 4-336 printed for the crystal structure (may be the ordered part of the full-length protein); N-terminal His tag, pET28, made in E. coli Origami B pLysS", "T1 sequence (A0R5T1 4-336)": "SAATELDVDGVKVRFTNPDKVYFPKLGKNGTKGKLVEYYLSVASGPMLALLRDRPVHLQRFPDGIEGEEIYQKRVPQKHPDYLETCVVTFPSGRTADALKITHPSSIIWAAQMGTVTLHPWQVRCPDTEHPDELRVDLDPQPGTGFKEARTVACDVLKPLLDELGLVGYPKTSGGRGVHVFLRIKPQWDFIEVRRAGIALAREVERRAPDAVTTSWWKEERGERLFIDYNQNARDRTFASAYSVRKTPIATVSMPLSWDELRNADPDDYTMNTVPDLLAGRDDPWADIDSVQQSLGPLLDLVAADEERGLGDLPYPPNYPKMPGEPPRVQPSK", "assay": "X-ray crystal structure, […] Å", "format": "binding", "conditions": "pre-catalytic ternary complex with 2-nt gapped DNA and two Mn2+; active site; pH 6.5"}, "Prim-PolC WT": {"target": "T2, Prim-PolC WT (UniProt A0R5T1 1-350)", "T2 sequence": "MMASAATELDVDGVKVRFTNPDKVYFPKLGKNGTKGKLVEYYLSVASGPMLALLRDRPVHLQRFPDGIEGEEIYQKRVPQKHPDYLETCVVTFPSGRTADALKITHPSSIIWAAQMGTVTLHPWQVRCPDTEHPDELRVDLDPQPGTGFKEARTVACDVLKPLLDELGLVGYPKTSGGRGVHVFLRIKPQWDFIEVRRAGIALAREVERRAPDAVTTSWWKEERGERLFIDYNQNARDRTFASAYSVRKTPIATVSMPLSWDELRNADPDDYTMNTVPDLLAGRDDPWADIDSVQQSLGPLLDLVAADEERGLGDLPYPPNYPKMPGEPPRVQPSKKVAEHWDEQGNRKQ", "assay": "2-aminopurine fluorescence (base flipping); 5 mM Ca2+, 250 uM ATP; Crystals: 0.05 M Na cacodylate pH 6.5, 2 M ammonium sulfate, 0.01 M MnCl2, 285 K, 300 uM protein:600 uM DNA; 2-AP assay: 0-1 uM protein, 1 uM DNA, 5 mM Ca2+, 250 uM ATP (buffer, pH and temperature not in material)", "conditions": "protein: recombinant, tags: N-terminal His, label: 2-AP, gapped duplex"}, "Prim-PolC N321A": {"target": "T3, Prim-PolC N321A (UniProt A0R5T1 1-350, N321A)", "T3 sequence": "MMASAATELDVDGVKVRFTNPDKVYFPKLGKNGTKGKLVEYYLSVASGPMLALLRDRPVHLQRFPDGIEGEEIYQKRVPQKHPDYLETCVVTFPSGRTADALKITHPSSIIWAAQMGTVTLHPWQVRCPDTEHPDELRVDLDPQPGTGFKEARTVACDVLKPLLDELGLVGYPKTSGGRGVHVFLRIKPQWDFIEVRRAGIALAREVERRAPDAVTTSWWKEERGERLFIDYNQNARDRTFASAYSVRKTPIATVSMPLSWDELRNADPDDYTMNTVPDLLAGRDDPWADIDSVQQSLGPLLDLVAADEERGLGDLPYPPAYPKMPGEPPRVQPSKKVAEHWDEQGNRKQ", "assay": "2-aminopurine fluorescence (base flipping); 5 mM Ca2+, 250 uM ATP; similar to WT; Crystals: 0.05 M Na cacodylate pH 6.5, 2 M ammonium sulfate, 0.01 M MnCl2, 285 K, 300 uM protein:600 uM DNA; 2-AP assay: 0-1 uM protein, 1 uM DNA, 5 mM Ca2+, 250 uM ATP (buffer, pH and temperature not in material)", "conditions": "protein: recombinant; tags: N-terminal His; label: 2-AP; gapped duplex, 1-nt gap"}, "Prim-PolC N321G": {"target": "T4, Prim-PolC N321G (UniProt A0R5T1 1-350, N321G)", "T4 sequence": "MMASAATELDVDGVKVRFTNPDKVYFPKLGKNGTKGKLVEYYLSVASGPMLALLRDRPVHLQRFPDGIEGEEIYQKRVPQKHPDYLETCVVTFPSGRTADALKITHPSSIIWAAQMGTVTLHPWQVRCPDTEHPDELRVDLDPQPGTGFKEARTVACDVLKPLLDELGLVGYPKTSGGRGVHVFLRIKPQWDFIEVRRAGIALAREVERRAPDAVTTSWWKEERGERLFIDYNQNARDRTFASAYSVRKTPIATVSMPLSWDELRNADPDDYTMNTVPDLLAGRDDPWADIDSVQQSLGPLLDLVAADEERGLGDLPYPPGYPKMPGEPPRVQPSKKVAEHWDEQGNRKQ", "assay": "2-aminopurine fluorescence (base flipping); 5 mM Ca2+, 250 uM ATP; similar to WT; Crystals: 0.05 M Na cacodylate pH 6.5, 2 M ammonium sulfate, 0.01 M MnCl2, 285 K, 300 uM protein:600 uM DNA; 2-AP assay: 0-1 uM protein, 1 uM DNA, 5 mM Ca2+, 250 uM ATP (buffer, pH and temperature not in material)", "conditions": "protein: recombinant, tags: N-terminal His, label: 2-AP, gapped duplex"}, "[2]": {"target": "T5, Prim-PolC (crystallisation construct) (UniProt A0R5T1 4-336)", "T5 sequence": "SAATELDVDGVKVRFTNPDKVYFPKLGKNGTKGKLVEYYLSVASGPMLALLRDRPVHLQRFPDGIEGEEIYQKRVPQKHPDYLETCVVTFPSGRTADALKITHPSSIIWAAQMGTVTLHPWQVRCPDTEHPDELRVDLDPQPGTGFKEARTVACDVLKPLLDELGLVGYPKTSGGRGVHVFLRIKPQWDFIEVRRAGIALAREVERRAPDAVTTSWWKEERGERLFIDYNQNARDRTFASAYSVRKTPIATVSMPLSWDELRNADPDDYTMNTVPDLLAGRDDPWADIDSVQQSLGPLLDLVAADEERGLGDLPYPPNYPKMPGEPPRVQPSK", "assay": "X-ray crystallography (2.0 A); Mn2+; PPi in one complex, 3'-dUTP in the other; Crystals: 0.05 M Na cacodylate pH 6.5, 2 M ammonium sulfate, 0.01 M MnCl2, 285 K, 300 uM protein:600 uM DNA; 2-AP assay: 0-1 uM protein, 1 uM DNA, 5 mM Ca2+, 250 uM ATP (buffer, pH and temperature not in material)", "conditions": "protein: recombinant; tags: N-terminal His; gapped duplex, 1-nt gap, blunt outer ends"}, "[3]": {"target": "T5, Prim-PolC (crystallisation construct)", "assay": "X-ray crystallography (2.2 A); Mn2+, UpNHpp; Crystals: 0.05 M Na cacodylate pH 6.5, 2 M ammonium sulfate, 0.01 M MnCl2, 285 K, 300 uM protein:600 uM DNA; 2-AP assay: 0-1 uM protein, 1 uM DNA, 5 mM Ca2+, 250 uM ATP (buffer, pH and temperature not in material)", "conditions": "protein: recombinant; tags: N-terminal His; gapped duplex, 2-nt gap (AA), blunt outer ends"}},
  "data": [
    {"molecule": "O=c1ccn([C@@H]2O[C@H](COP(=O)(O)NP(=O)(O)OP(=O)(O)O)[C@@H](O)[C@H]2O)c(=O)[nH]1", "note": "[UpNHpp]", "values": [
      {"measurement": "X-ray crystal structure, 2.21 Å", "setting": "[1]", "result": "a non-hydrolysable incoming UTP ribonucleotide (UpNHpp) and manganese ions were also included"}
    ]},
    {"molecule": "B1", "values": [
      {"measurement": "binding result", "setting": "Prim-PolC WT; 1-nt gap", "result": "binds"},
      {"measurement": "binding result", "setting": "Prim-PolC N321A", "result": "binds"},
      {"measurement": "binding result", "setting": "Prim-PolC N321G; 1-nt gap", "result": "binds"}
    ]},
    {"molecule": "B2", "values": [
      {"measurement": "binding result", "setting": "Prim-PolC WT; 2-nt gap", "result": "binds"}
    ]},
    {"molecule": "B3", "values": [
      {"measurement": "binding result", "setting": "Prim-PolC N321G; 3-nt gap", "result": "binds"}
    ]},
    {"molecule": "B4", "values": [
      {"measurement": "binding result", "setting": "[2]", "result": "binds"}
    ]},
    {"molecule": "B5", "values": [
      {"measurement": "binding result", "setting": "[3]", "result": "binds"}
    ]}
  ]
}
